According to US5998583, “BH3 interacting domain death agonist” (Washington University, dated 1999):

Assays:
[1] = molecular target: human BCL-2 (in FL5.12-Bcl-2 cells) (human, UniProt P10415); experiment: In Vitro and In Vivo BCL-2 Binding (summary: GST pull-down and anti-BID immunoprecipitation with anti-BCL-2 blot)
[2] = molecular target: BAX (in FL5.12-Bcl-2 cells) (murine, UniProt Q07813); experiment: In Vitro and In Vivo BAX Binding (summary: GST pull-down and anti-BID immunoprecipitation with anti-BAX blot)

B1: BIDmIII-1 (M97A,D98A) (other)
chain: MDSEVSNGSGLGAKHITDLLVFGFLQSSGCTRQELEVLGRELPVQAYWEADLEDELQTDGSQASRSFNQGRIEPDSESQEEIIHNIARHLAQIGDEAAHNIQPTLVRQLAAQFMNGSLSEEDKRNCLAKALDEVKTAFPRDMENDKAMLIMTMLLAKKVASHAPSLLRDVFHTTVNFINQNLFSYVRNLVRNEMD
- binding result [1]: no binding

B2: BIDmIII-3 (G94A) (other)
chain: MDSEVSNGSGLGAKHITDLLVFGFLQSSGCTRQELEVLGRELPVQAYWEADLEDELQTDGSQASRSFNQGRIEPDSESQEEIIHNIARHLAQIADEMDHNIQPTLVRQLAAQFMNGSLSEEDKRNCLAKALDEVKTAFPRDMENDKAMLIMTMLLAKKVASHAPSLLRDVFHTTVNFINQNLFSYVRNLVRNEMD
- binding result [2]: no binding
